Laboratory results reported in doi:10.1101/2023.07.20.549453 (bioRxiv, 2023).

T1: Human Numb full-length (human, UniProt P49757 1-651)
T1 sequence (looked up): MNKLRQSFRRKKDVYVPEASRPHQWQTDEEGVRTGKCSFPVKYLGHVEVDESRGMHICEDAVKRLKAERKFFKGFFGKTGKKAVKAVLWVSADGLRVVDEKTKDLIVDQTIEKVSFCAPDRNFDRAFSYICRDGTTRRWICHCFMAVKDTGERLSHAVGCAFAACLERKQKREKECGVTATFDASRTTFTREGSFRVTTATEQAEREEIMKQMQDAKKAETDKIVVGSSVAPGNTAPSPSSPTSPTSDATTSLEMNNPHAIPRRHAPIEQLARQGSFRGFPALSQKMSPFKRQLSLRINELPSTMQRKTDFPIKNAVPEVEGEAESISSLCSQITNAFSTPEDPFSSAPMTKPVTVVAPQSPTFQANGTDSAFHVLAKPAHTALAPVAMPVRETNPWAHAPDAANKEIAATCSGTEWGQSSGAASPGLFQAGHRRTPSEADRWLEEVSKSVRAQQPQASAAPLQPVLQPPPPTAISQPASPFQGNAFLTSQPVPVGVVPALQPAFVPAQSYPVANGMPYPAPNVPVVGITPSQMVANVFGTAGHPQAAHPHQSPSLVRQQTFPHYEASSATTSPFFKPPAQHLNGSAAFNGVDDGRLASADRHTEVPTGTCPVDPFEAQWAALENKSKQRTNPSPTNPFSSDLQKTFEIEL


How the values were obtained:
Human Numb full-length = target: T1, Human Numb full-length; assay: SPR
[1] = target: Human Mdm2 (residues 119-438) (human, UniProt Q00987-11 119-438); assay: SPR
Human Mdm2 (residues 119-438), sequence (Q00987 113-432): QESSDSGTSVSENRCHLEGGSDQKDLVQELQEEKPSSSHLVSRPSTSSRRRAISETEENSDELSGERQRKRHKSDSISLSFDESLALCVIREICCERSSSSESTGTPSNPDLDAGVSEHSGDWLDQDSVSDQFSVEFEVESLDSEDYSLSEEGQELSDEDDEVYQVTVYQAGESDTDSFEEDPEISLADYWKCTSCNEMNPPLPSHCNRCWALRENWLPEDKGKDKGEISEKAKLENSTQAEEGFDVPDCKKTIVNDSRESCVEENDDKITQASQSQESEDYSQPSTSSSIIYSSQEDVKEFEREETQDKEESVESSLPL

Row | Kd (Human Numb full-length) | Kd [1] | Binder
1 | ~14.3 nM |  | Human Notch1 intracellular domain (NICD) (residues 2280-2550) (domain or fragment, UniProt P46531 2280-2550, looked up) SGTSTVLGSSSGGALNFTVGGSTSLNGQCEWLSRLQSGMVPNQYNPLRGSVAPGPLSTQAPSLQHGMVGPLHSSLAASALSQMMSYQGLPSTRLATQPHLVQTQQVQPQNLQMQQQNLQPANIQQQQSLQPPPPPPQPHLGVSSAASGHLGRSFLSGEPSQADVQPLGPSSLAVHTILPQESPALPTSLPSSLVPPVTAAQFLTPPSQHSYSSPVDNTPSHQLQVPEHPFLTPSPESPDQWSSSSPHSNVSDWSEGVSSPPTSMQSQIARI
2 | ~2.4 nM | ~3.5 nM | Human Dlk2 extracellular domain (Dlk2EC, residues 1-306) (domain or fragment, UniProt Q6UY11 27-306, looked up) DDCSSHCDLAHGCCAPDGSCRCDPGWEGLHCERCVRMPGCQHGTCHQPWQCICHSGWAGKFCDKDEHICTTQSPCQNGGQCMYDGGGEYHCVCLPGFHGRDCERKAGPCEQAGSPCRNGGQCQDDQGFALNFTCRCLVGFVGARCEVNVDDCLMRPCANGATCLDGINRFSCLCPEGFAGRFCTINLDDCASRPCQRGARCRDRVHDFDCLCPSGYGGKTCELVLPVPDPPTTVDTPLGPTSAVVVPATGPAPHSAGAGLLRISVKEVVRRQEAGLGEPS
